Data reported in article PMC12176259, “Bacterial transcriptional repressor NrdR – a flexible multifactorial nucleotide sensor” (The Febs Journal, 2025).
“And” between values parts separate entries of the source, which are not always exact repeats. Identical values can stand only once.

Target: T1, NrdR (EcoNrdR) (Escherichia coli K-12 MG1655) (UniProt P0A8D0)
T1 sequence: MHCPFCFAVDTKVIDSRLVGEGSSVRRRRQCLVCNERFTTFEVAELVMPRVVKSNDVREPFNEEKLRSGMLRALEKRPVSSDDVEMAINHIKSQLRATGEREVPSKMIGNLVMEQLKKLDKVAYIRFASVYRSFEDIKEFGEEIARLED
Assay: MST
Conditions: 17 mM Tris-HCl pH 8.6 (room temperature), 100 mM NaCl, 7 mM MgCl2, 0.33 mM TCEP, 0.025% Tween-20, nucleotide effectors 1 mM each, 5 nM Cy5-dsDNA, low values mean tight binding

| Sequence | Kd |
| --- | --- |
| ACTATTTGCTATATATTGTGTGGTTGAATCTTTTTTCAACTACATCTAGTATCTCTG (double strand) [nrdHIEF promoter (nrdEF_Cy5)] | 138 nM and 328 nM and 187 nM |
| CATACCCCCTATATATAGTGTTCTAAGCAGCTTCCCGTACTACAGGTAGTCTGCATG (double strand) [nrdAB promoter box 1+2] | 128 nM and 113 nM and 96 nM |
| GCAAAGCACTATATATAGACTTTAAAATGCGTCCCAACCCAATATGTTGTATTAATC (double strand) [nrdDG promoter] | 160 nM and 171 nM and 152 nM |
